Several values for one entry are separate records, joined by “and”; a condition that tells them apart may be missing. Equal values may be shown once. Each block holds one binder with its values, some of them ahead of it.
How the values were obtained:
[1] = molecular target: T1, VEGF (VEGF 1-165 aa, R&D Systems 293-VE-010) (UniProt P15692 27-191); test: Direct bind ELISA, VEGF coated on plate; VEGF domain C-term., HC long/LC long
T1 construct: bought reagent; also called vascular endothelial growth factor
T1 sequence (P15692 other isoform, or with tags, fused parts or gaps limits assumed): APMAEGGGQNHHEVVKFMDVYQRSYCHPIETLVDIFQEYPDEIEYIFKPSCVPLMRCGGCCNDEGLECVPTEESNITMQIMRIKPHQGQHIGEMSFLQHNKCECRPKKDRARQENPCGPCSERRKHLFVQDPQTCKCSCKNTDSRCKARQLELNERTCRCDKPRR

[2] = molecular target: T1, VEGF (VEGF 1-165 aa, R&D Systems …); test: Direct bind ELISA, VEGF coated on plate; VEGF domain C-term., HC short/LC long
[3] = molecular target: T1, VEGF (VEGF 1-165 aa, R&D Systems …); test: Direct bind ELISA, VEGF coated on plate; VEGF domain N-term., HC short/LC long
[4] = molecular target: T2, ErbB3 (ErbB3 ECD/FC Chimera-His tag, R&D 348-RB-050) (UniProt P21860 20-643, limits assumed); test: direct bind ELISA, coated antigen; parent reference antibody
T2 construct: extracellular domain; Bought antigen coated on the ELISA plate

[5] = molecular target: T1, VEGF (VEGF 1-165 aa, R&D Systems …); test: Direct bind ELISA, VEGF coated on plate; VEGF domain C-term., HC long/LC short

B1: DVD495 (bispecific antibody, human IgG1, kappa)
heavy: not shown
light: DIQMTQSSSYLSVSLGGRVTITCKASDHINNWLAWYQQKPGNAPRLLISGATSLETGVPSRFSGSGSGKDYTLSITSLQTEDVATYYCQQYWSIPLTFGAGTKLELKRTVAAPSVFIFPPDIQMTQSPSSLSASVGDRVTITCRASQDVSTAVAWYQQKPGKAPKLLIYSASFLYSGVPSRFSGSGSGTDFTLTISSLQPEDFATYYCQQSYTTPPTFGQGTKVEIKRTVAAPSVFIFPPSDEQLKSGTASVVCLLNNFYPREAKVQWKVDNALQSGNSQESVTEQDSKDSTYSLSSTLTLSKADYEKHKVYACEVTHQGLSSPVTKSFNRGEC
notes: DVD-Ig; N-term; AB072 (DLL4), C-term; AB070 (VEGF); HC linker long, LC linker long; also called DVD-Ig DVD495; DVD495H/DVD495L
- EC50 [1]: 70 nM

B2: DVD507 (bispecific antibody, human IgG1, kappa, L234A L235A)
heavy: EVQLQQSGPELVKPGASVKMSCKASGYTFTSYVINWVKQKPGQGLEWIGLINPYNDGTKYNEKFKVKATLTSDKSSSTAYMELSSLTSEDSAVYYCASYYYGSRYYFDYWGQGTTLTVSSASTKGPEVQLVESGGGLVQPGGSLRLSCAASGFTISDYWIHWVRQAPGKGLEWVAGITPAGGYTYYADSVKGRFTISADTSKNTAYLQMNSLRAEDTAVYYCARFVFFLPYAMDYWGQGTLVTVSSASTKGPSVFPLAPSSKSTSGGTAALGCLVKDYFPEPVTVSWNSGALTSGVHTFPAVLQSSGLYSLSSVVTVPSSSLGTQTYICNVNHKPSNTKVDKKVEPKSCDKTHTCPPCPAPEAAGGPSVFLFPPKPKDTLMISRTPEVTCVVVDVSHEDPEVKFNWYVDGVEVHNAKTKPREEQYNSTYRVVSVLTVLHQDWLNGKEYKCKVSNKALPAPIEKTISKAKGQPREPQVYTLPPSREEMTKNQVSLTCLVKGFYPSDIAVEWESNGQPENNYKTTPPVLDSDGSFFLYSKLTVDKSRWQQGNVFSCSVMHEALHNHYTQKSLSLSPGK
light: DIQMTQSSSYLSVSLGGRVTITCKASDHINNWLAWYQQKPGNAPRLLISGATSLETGVPSRFSGSGSGKDYTLSITSLQTEDVATYYCQQYWSIPLTFGAGTKLELKRTVAAPSVFIFPPDIQMTQSPSSLSASVGDRVTITCRASQDVSTAVAWYQQKPGKAPKLLIYSASFLYSGVPSRFSGSGSGTDFTLTISSLQPEDFATYYCQQSYTTPPTFGQGTKVEIKRTVAAPSVFIFPPSDEQLKSGTASVVCLLNNFYPREAKVQWKVDNALQSGNSQESVTEQDSKDSTYSLSSTLTLSKADYEKHKVYACEVTHQGLSSPVTKSFNRGEC
notes: DVD-Ig; N-term; AB072 (DLL4), C-term; AB070 (VEGF); HC linker short, LC linker long; also called DVD-Ig DVD507; DVD507H/DVD507L
- EC50 [2]: 34.9 nM

B3: DVD508 (bispecific antibody, human IgG1, kappa)
heavy: not shown
light: DIQMTQSPSSLSASVGDRVTITCRASQDVSTAVAWYQQKPGKAPKLLIYSASFLYSGVPSRFSGSGSGTDFTLTISSLQPEDFATYYCQQSYTTPPTFGQGTKVEIKRTVAAPSVFIFPPDIQMTQSSSYLSVSLGGRVTITCKASDHINNWLAWYQQKPGNAPRLLISGATSLETGVPSRFSGSGSGKDYTLSITSLQTEDVATYYCQQYWSIPLTFGAGTKLELKRTVAAPSVFIFPPSDEQLKSGTASVVCLLNNFYPREAKVQWKVDNALQSGNSQESVTEQDSKDSTYSLSSTLTLSKADYEKHKVYACEVTHQGLSSPVTKSFNRGEC
notes: DVD-Ig; N-term; AB070 (VEGF), C-term; AB072 (DLL4); HC linker short, LC linker long; also called DVD-Ig DVD508; DVD508H/DVD508L
- EC50 [3]: 7.88 nM

- EC50 [4]: 1.78 nM and 2.2 nM and 1.12 nM
B4: AB067 (antibody, human IgG1, lambda, L234A L235A, V domains shown)
VH: EVQLLESGGGLVQPGGSLRLSCAASGFTFSHYVMAWVRQAPGKGLEWVSSISSSGGWTLYADSVKGRFTISRDNSKNTLYLQMNSLRAEDTAVYYCTRGLKMATIFDYWGQGTLVTVSS
VL: QSALTQPASVSGSPGQSITISCTGTSSDVGSYNVVSWYQQHPGKAPKLIIYEVSQRPSGVSNRFSGSKSGNTASLTISGLQTEDEADYYCCSYAGSSIFVIFGGGTKVTVLG
notes: also called AB067VH

B5: DVD531 (bispecific antibody, human IgG1, kappa, lambda)
heavy: not shown
light: QAVVTQESALTTSPGETVTLTCRSSTGAVTTSNYANWVQEKPDHLFTGLIGGTNNRAPGVPARFSGSLIGDKAALTITGAQTEDEAIYFCALWYSNHWVFGGGTKLTVLGQPKAAPSVTLFPPDIQMTQSPSSLSASVGDRVTITCRASQDVSTAVAWYQQKPGKAPKLLIYSASFLYSGVPSRFSGSGSGTDFTLTISSLQPEDFATYYCQQSYTTPPTFGQGTKVEIKRTVAAPSVFIFPPSDEQLKSGTASVVCLLNNFYPREAKVQWKVDNALQSGNSQESVTEQDSKDSTYSLSSTLTLSKADYEKHKVYACEVTHQGLSSPVTKSFNRGEC
notes: DVD-Ig; N-term; AB073 (DLL4), C-term; AB070 (VEGF); HC linker short, LC linker long; also called DVD-Ig DVD531; DVD531H/DVD531L
- EC50 [2]: 60.4 nM

- EC50 [5]: 45.2 nM
B6: DVD501 (bispecific antibody, human IgG1, kappa)
heavy: not shown
light: DIQMTQSSSYLSVSLGGRVTITCKASDHINNWLAWYQQKPGNAPRLLISGATSLETGVPSRFSGSGSGKDYTLSITSLQTEDVATYYCQQYWSIPLTFGAGTKLELKRTVAAPDIQMTQSPSSLSASVGDRVTITCRASQDVSTAVAWYQQKPGKAPKLLIYSASFLYSGVPSRFSGSGSGTDFTLTISSLQPEDFATYYCQQSYTTPPTFGQGTKVEIKRTVAAPSVFIFPPSDEQLKSGTASVVCLLNNFYPREAKVQWKVDNALQSGNSQESVTEQDSKDSTYSLSSTLTLSKADYEKHKVYACEVTHQGLSSPVTKSFNRGEC
notes: DVD-Ig; N-term; AB072 (DLL4), C-term; AB070 (VEGF); HC linker long, LC linker short; also called DVD-Ig DVD501; DVD501H/DVD501L

- EC50 [5]: 430 nM
B7: DVD503 (bispecific antibody, human IgG1, kappa)
heavy: not shown
light: DIQMTQSSSYLSVSLGGRVTITCKASDHINNWLAWYQQKPGNAPRLLISGATSLETGVPSRFSGSGSGKDYTLSITSLQTEDVATYYCQQYWSIPLTFGAGTKLELKRTVAAPDIQMTQSPSSLSASVGDRVTITCRASQVIRRSLAWYQQKPGKAPKLLIYAASNLASGVPSRFSGSGSGTDFTLTISSLQPEDFATYYCQQSNTSPLTFGQGTKVEIKRTVAAPSVFIFPPSDEQLKSGTASVVCLLNNFYPREAKVQWKVDNALQSGNSQESVTEQDSKDSTYSLSSTLTLSKADYEKHKVYACEVTHQGLSSPVTKSFNRGEC
notes: DVD-Ig; N-term; AB072 (DLL4), C-term; AB071 (VEGF); HC linker long, LC linker short; also called DVD-Ig DVD503; DVD503H/DVD503L

- EC50 [4]: 0.75 nM and 0.97 nM and 1.6 nM
B8: AB062 (antibody, human IgG1, kappa, V domains shown)
VH: QVQLQQWGAGLLKPSETLSLTCAVYGGSFSGYYWSWIRQPPGKGLEWIGEINHSGSTNYNPSLKSRVTISVETSKNQFSLKLSSVTAADTAVYYCARDKWTWYFDLWGRGTLVTVSS
VL: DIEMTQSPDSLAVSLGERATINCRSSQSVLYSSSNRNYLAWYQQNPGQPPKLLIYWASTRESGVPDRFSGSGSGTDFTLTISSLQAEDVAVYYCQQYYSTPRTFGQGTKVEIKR
notes: also called AB062VH

From patent US20100260668A1 (published 2010)
